# Assay results as given in patent US20070134249A1 (GENITOPE, published 2007).
# Columns and labels:
# Assay in all cases: ELISA
# [1] = target: T1, 645; parameters: key to grade: 0 = <0.5 OD, 1 = 0.5-1.0 OD, 4 = 1-4 OD
# T1 construct: H3-74 L2-14; also called PIN645
# Excerpt: (§1) Before specificity screening, all of the clonal immunogen-positive hybridoma supernatants were re-screened on the immunogen, a non-family member Id protein, and KLH, if animals were immunized with Id protein that has been conjugated KLH. As described above, this screen identifies HC-specific clones but not mAbs against the light chain constant region. Clones identified positive to the immunogen and KLH were […]. Those found positive to the immunogen but not to the non-family member Id protein or KLH were tittered on the immunogen. In addition to normalizing for different binding affinities and concentrations, each hybridoma supernatant was titered on the fully human form of the Id protein used as the immunogen(s) for the V regions. The titer or dilution resulting in an ELISA absorbance of 2.5 to 3 OD after 30 min. incubation time was then used. Hybridoma specificity was determined by screening against available Id proteins expressing the same HV and KV or LV as well as different HV, KV and LV. The final ELISA results are expressed as follows: 0 (<0.5 OD), 1 (0.5-1.0 OD), or 4 (1-4 OD). Positive hybridoma supernatants are categorized according to specificity: anti-Id, anti-constant region (HC, KC or LC), or V region (HV, KV, LV family or family member).
# (§2) In general, the fully human Id protein or proteins containing the immunogen V regions were coated onto 96-well ELISA plates at 2.5-5 ug/mL in carbonate buffer pH 9.6 and incubated at 4° C. for up to 14 days. On the day of the ELISA, plates were brought to RT and blocked with Tris-Tween-20, pH 7.6 for 15-60 min. at RT. Following a NaCl and Triton X-100 wash, diluted hybridoma cell culture supernatants were incubated overnight at 4° C. Hybridoma supernatant dilutions ranged from 1:2 to 1:25 and were prepared in PBS with 5% BSA. Plates were washed and incubated with HRP-conjugated goat anti-mouse IgG-specific detecting antibody. A chromogenic substrate (TMB) was used to measure the amount of mouse antibody bound to each well. The reaction was stopped at or before 30 minutes with IN H2SO4 and plates were read immediately. Absorbency readings at 450 nm ranging between 0-4 OD and using Molecular Devices plate reader and SOFTMAX PRO software.
# [2] = target: T2, 662; parameters: key to grade: 0 = <0.5 OD, 1 = 0.5-1.0 OD, 4 = 1-4 OD
# T2 construct: fully human Id protein; also called PIN662
# T2 sequence (heavy, as listed by the source): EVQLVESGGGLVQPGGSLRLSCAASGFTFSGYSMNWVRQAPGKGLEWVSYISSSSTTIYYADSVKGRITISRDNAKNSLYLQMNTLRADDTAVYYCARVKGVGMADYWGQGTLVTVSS
# Excerpt: as §1, §2
# [3] = target: T3, 796; parameters: key to grade: 0 = <0.5 OD, 1 = 0.5-1.0 OD, 4 = 1-4 OD
# T3 construct: H3-23 L3-25; also called PIN796
# Excerpt: as §1, §2
# [4] = target: T4, 552; parameters: key to grade: 0 = <0.5 OD, 1 = 0.5-1.0 OD, 4 = 1-4 OD
# T4 construct: H1-18 L2-8; also called PIN552
# Excerpt: as §1, §2
# [5] = target: T5, 164; parameters: key to grade: 0 = <0.5 OD, 1 = 0.5-1.0 OD, 4 = 1-4 OD
# T5 construct: H4-39 L2-14; also called PIN164
# Excerpt: as §1, §2
# [6] = target: T6, 762; parameters: key to grade: 0 = <0.5 OD, 1 = 0.5-1.0 OD, 4 = 1-4 OD
# T6 construct: H3-7 L3-10; also called PIN762
# Excerpt: as §1, §2
# [7] = target: T7, 710; parameters: key to grade: 0 = <0.5 OD, 1 = 0.5-1.0 OD, 4 = 1-4 OD
# T7 construct: H1-8 L2-8; also called PIN710
# Excerpt: as §1, §2
# [8] = target: T8, 746; parameters: key to grade: 0 = <0.5 OD, 1 = 0.5-1.0 OD, 4 = 1-4 OD
# T8 construct: H4-39 L2-8; also called PIN746
# Excerpt: as §1, §2
# [9] = target: T9, 116; parameters: key to grade: 0 = <0.5 OD, 1 = 0.5-1.0 OD, 4 = 1-4 OD
# T9 construct: fully human Id protein; also called PIN116
# T9 sequence (VH, as listed by the source, chain 1 of 2): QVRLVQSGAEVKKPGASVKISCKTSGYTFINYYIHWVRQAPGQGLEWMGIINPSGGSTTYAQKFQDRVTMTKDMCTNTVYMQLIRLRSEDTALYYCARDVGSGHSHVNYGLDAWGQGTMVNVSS
# T9 sequence (V domain, as listed by the source, chain 2 of 2): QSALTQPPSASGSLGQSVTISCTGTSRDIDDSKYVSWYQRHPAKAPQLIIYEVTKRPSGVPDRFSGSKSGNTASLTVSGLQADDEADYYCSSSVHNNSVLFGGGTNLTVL
# Excerpt: as §1, §2
# [10] = target: T10, 631; parameters: key: 0 = <0.5 OD, 1 = 0.5-1.0 OD, 4 = 1-4 OD
# T10 construct: H4-34 K4-1; also called PIN631
# Excerpt: as §1, §2
# [11] = target: T11, 902; parameters: key: 0 = <0.5 OD, 1 = 0.5-1.0 OD, 4 = 1-4 OD
# T11 construct: H3-7 K3-20; also called PIN902
# Excerpt: as §1, §2
# [12] = target: T12, 899; parameters: key: 0 = <0.5 OD, 1 = 0.5-1.0 OD, 4 = 1-4 OD
# T12 construct: H4-34 K4-1; also called PIN899
# Excerpt: as §1, §2
# [13] = target: T13, 659; parameters: key: 0 = <0.5 OD, 1 = 0.5-1.0 OD, 4 = 1-4 OD
# T13 construct: H3-21 K4-1; also called PIN659
# Excerpt: as §1, §2
# [14] = target: T14, 952; parameters: key: 0 = <0.5 OD, 1 = 0.5-1.0 OD, 4 = 1-4 OD
# T14 construct: H3-66 K4-1; also called PIN952
# Excerpt: as §1, §2
# [15] = target: T15, 199; parameters: key: 0 = <0.5 OD, 1 = 0.5-1.0 OD, 4 = 1-4 OD
# T15 construct: H3-7 K4-1; also called PIN199
# Excerpt: as §1, §2
# [16] = target: T16, 610; parameters: key: 0 = <0.5 OD, 1 = 0.5-1.0 OD, 4 = 1-4 OD
# T16 construct: H3-23 K4-1; also called PIN610
# Excerpt: as §1, §2
# [17] = target: T17, 591; parameters: key: 0 = <0.5 OD, 1 = 0.5-1.0 OD, 4 = 1-4 OD
# T17 construct: H3-23 K4-1; also called PIN591
# Excerpt: as §1, §2
# [18] = target: T18, 898; parameters: key: 0 = <0.5 OD, 1 = 0.5-1.0 OD, 4 = 1-4 OD
# T18 construct: H3-15 K4-1; also called PIN898
# Excerpt: as §1, §2
# [19] = target: T19, 204; parameters: key: 0 = <0.5 OD, 1 = 0.5-1.0 OD, 4 = 1-4 OD
# T19 construct: H3-15 K4-1; also called PIN204
# Excerpt: as §1, §2
# [20] = target: T20, 529; parameters: key: 0 = <0.5 OD, 1 = 0.5-1.0 OD, 4 = 1-4 OD
# T20 construct: H3-48 K4-1; also called PIN529
# Excerpt: as §1, §2
Binder,grade [1],grade [2],grade [3],grade [4],grade [5],grade [6],grade [7],grade [8],binding result [9],grade [10],grade [11],grade [12],grade [13],grade [14],grade [15],grade [16],grade [17],grade [18],grade [19],grade [20]
"mAb clone 4H11 (antibody, V domains shown, Mouse hybridoma mAb) VH: EVKLVESGGGLVKPGGSLKLSCAASGFAFSNYDMSWVRQTPEKRLEWVATIRSDDSYTYYPDSVKGRFTISRDNARNTLYLQMSSLRSEDTAFYYCARREGNYAMDYWGQGTSVTVSS VL: DIQMTQSPASLSVSVGETVTITCRASENIYSYLAWYQQKKGKSPQLLVYAATNLGDGVPTRFSGSGSGTQYSLKINSLQSEDFGSYYCQHFWGNPLTFGAGTKLELKR",1,4,4,4,4,4,4,1,no binding,–,–,–,–,–,–,–,–,–,–,–
"mAb clone 12C3 (antibody, V domains shown, Mouse hybridoma mAb, fusions 20/21 (PIN628 V regions)) VH: EVKLVESGGGLVQPGGSLSLSCAASGFTYTDYYMNWVRQPPGKALEWLALIRNKANGYTTEYSASLKGRFTISRDNSQSILYLQMNALRAEDSATYYCVRENINYYFDYWGQGTTLTVSS VL: DIVLTQSPASLAVSLGQRATISCRASESVEYFGASLMQWYQQKSGQPPKLLIRAATNVESGVPARFSGSGSGTDFSLNIHPVEEDDIAMYFCQQSRKVPWTFGGGTKLEIKR",–,–,–,–,–,–,–,–,–,4,4,4,4,4,4,4,4,4,4,4
